From article doi:10.1101/2025.05.15.25327633

Target: Platelet-factor 4 (Human CXCL4) (human)
Assay: cross-linking + AUC

Platelet-factor 4 (Human CXCL4) (natural protein)
percent of PF4 present as tetramers: 81.2% | stoichiometry N: 4
